Reference: US10005846 (LIFEARC, dated 2018)

B1: hAB004 (hAB001AE) humanised AB1 antibody (antibody, V domains shown)
VH: EVQLLESGGGLVQPGGSLRLSCAASGFTFSSSAMSWVRQAPGKGLEWVSTISVGGGKTYYPDSVKGRFTISRDNSKNTLYLQMNSLRAEDTAVYYCAKLISLYWGQGTLVTVSS
VL: EIVLTQSPSSLSASVGDRVTITCKASQDINSYLTWYQQKPGKAPKLLIYRTNRLFDGVPSRFSGSGSGTDFFFTISSLQPEDFGTYYCLQYDDFPYTFGGGTKLEIK
notes: they were captured by anti-human IgG1 (Fc); also called Heavy Chain version RHA with Light Chain version RKE
B2: hBB001BB humanised BB7 antibody (antibody, V domains shown)
VH: EVQLLESGGGLVQPGGSLRLSCAASGIIFSSSAMSWVRQAPGKGLEWVATISSGGRSTYYPDSVKGRFTVSRDSSKNTLYLQMNSLRAEDTAVYYCAKLISPYWGQGTLVTVSS
VL: DIKMTQSPSSLSASVGDRVTITCKASQDINSYLTWFQQKPGKAPKTLIYLTNRLMDGVPSRFSGSGSGQEFLLTISSLQPEDFATYYCLQYVDFPYTFGQGTKVEIK
notes: BB is read as heavy chain hBB001HB (BB7_RHB) with kappa chain hBB001KB (BB7_RKB)
B3: hBB001AA humanised BB7 antibody (antibody, V domains shown)
VH: EVQLLESGGGLVQPGGSLRLSCAASGFTFSSSAMSWVRQAPGKGLEWVSTISSGGRSTYYPDSVKGRFTISRDNSKNTLYLQMNSLRAEDTAVYYCAKLISPYWGQGTLVTVSS
VL: DIQMTQSPSSLSASVGDRVTITCKASQDINSYLTWFQQKPGKAPKSLIYLTNRLMDGVPSRFSGSGSGTDFFLTISSLQPEDFATYYCLQYVDFPYTFGQGTKVEIK
notes: captured by anti-human IgG1 (Fc); also called hBB01AA

Columns and labels:
[1] = biological target: T1, human transglutaminase type 2 (TG2) (human, UniProt P21980 1-687); assay: cell-based or functional assay
T1 sequence: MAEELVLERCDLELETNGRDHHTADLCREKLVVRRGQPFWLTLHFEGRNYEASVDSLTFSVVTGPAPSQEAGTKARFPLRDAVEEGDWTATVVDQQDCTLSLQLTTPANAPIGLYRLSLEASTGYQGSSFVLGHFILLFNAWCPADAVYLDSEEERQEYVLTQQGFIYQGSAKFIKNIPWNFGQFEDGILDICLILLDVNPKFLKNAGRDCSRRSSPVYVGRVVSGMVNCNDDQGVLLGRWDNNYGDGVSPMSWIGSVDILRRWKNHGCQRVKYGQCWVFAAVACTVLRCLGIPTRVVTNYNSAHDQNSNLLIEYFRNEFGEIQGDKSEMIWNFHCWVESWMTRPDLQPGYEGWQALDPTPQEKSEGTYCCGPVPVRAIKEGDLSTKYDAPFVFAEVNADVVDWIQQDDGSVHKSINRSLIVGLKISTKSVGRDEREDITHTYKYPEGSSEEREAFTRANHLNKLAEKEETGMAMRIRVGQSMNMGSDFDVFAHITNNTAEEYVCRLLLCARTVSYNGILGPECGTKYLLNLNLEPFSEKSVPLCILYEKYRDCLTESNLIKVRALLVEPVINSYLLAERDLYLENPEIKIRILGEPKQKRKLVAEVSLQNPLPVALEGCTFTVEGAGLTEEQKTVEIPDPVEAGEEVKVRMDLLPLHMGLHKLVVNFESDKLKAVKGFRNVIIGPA

[2] = biological target: T2, cynomolgus monkey TG2 (cynomolgus monkey, UniProt A0A2K5VXI8 1-687); assay: cell-based or functional assay
T2 sequence: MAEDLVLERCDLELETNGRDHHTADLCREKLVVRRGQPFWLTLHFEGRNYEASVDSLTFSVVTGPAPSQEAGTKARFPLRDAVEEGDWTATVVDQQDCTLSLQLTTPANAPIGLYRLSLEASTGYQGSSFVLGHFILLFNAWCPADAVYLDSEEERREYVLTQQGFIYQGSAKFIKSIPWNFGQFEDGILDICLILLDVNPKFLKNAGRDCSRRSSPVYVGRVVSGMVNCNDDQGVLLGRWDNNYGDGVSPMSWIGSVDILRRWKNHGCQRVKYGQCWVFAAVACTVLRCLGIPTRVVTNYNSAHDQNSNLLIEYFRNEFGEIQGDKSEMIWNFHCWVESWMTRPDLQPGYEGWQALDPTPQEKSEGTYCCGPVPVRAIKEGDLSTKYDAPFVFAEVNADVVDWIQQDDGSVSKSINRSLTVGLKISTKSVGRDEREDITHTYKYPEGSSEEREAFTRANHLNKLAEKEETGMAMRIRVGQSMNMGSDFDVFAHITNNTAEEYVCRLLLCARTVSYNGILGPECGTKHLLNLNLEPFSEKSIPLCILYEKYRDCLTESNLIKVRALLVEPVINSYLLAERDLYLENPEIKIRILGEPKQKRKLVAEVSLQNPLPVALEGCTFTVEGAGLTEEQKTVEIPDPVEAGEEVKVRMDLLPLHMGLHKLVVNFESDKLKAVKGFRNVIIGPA

[3] = biological target: T1, human transglutaminase type 2 (TG2); assay: SPR (Biacore T200), antibody captured on anti-human IgG1 Fc chip, TG2 injected; calcium condition not marked in the row
Description: (§1) Recombinant cynomolgus monkey TG2 was obtained from Trenzyme. Surface plasmon resonance (SPR) was measured on a Biacore T200 instrument (GE Healthcare). CM5 chips (GE Healthcare cat. no.: BR-1006-68) were coated with monoclonal mouse anti-human IgG1 (Fc) (MAH) antibody (GE Healthcare cat. no.: BR-1008-39) by amine-coupling as described in the manufacturers instructions. HBS-EP+ buffer (0.01 M HEPES, 0.15 M NaCl, 3 mM EDTA, 0.05% v/v Surfactant P20) and HBS-P+ buffer (0.01 M HEPES, 0.15 M NaCl, 0.05% Surfactant P20) were purchased from GE Healthcare as 10× stocks (cat. nos.: BR-1006-69 and BR-1006-71). Calcium Chloride solution was obtained from Sigma Aldrich (cat. no.:21115).
(§2) The method employed to determine the affinity of the anti-TG2 antibodies involved the capture of the chimeric or humanised antibodies on a MAH coated CM5 chip, followed by the injection of a series of TG2 samples in running buffer. The running buffer was 1×HBS-P+ containing 1 mM CaCl_2, or 1×HBS-EP+ for calcium-free experiments. Antibody capture was carried out for a contact time of 120 seconds at a flow rate of 10 μl/min resulting in the capture of approximately 40-80 RU. TG2 was injected over the immobilised antibody at concentrations ranging from 25 nM to 400 nM with a contact time up to 600 seconds at a flow rate of 30 μl/min. Dissociation of TG2 was typically measured for up to 5400 seconds (1.5 hours). Regeneration of the chip was then performed using 3 M MgCl_2, for a contact time of 60 seconds at a flow rate of […], followed by a 300 s stabilisation period before the next sample. For each of human and cynomolgus monkey TG2, at least 5 injections at a variety of concentrations were performed in at least two separate experiments.
(§3) Kinetic data were exported from the Biacore T200 Evaluation Software and analysed using GraphPad Prism, where the association phases and dissociation phases were analysed separately using a one phase association model and one-phase exponential decay model respectively. Association rates ($kon$) were calculated for each curve individually, and dissociation rates ($koff$) values from the long dissociation phase data collected. Where $koff$ values were calculated to be $<1\times10^-5$ s^-1, values were set at 1×10^-5 for analysis, as rates slower than this could not be estimated accurately.

[4] = biological target: T2, cynomolgus monkey TG2; assay: as above
Description: as §1, §2, §3

[5] = biological target: T2, cynomolgus monkey TG2; assay: ELISA on immobilised cynomolgus monkey TG2; r2 0.9766; EC50 95% confidence range 0.04047 to 0.09246 [panel B]
Description: (§4) Antibody binding to human and cynomolgus monkey TG2 was determined in an ELISA assay. Clear polystyrene "Maxisorp" 96-well plates (Nunc) were coated with 50 ng purified human or cynomogulus monkey TG2 in 50 µl 0.05 M carbonate-bicarbonate buffer pH 9.6 at 4° C. overnight. Control wells were coated with 50 µl 100 µg/ml bovine serum albumin (BSA). Plates were washed 3× with 300 µl phosphate-buffered saline pH7.4 (PBS) containing 0.1% Tween 20 (PBST) and blocked with 300 µl 3% w/v Marvel skimmed milk in PBS for 1 hour at room temperature. After 3× wash with PBST, 50 µl protein-A purified chimeric or humanised anti-TG2 antibodies or human IgG1 kappa […] control antibody or CUB7402 (Abcam) were serially diluted 4-fold from a top concentration of 50 nM in PBS, and added to the plate in duplicate. […] After 3× washes with PBST, the plates were developed with 50 µl TMB substrate (Sigma) for 5 min at room temperature before stopping the reaction with 25 µl 0.5M H2SO4 and reading absorbance at 450 nm in a microtiter plate reader (BioTek EL808). Dose response curves were analysed and EC50 values and other statistical parameters determined using a 4-parameter logistical fit of the data (GraphPad Prism).

[6] = biological target: T1, human transglutaminase type 2 (TG2); assay: ELISA on immobilised human TG2; r2 0.9794; EC50 95% confidence range 0.01199 to 0.03342 [panel B]
Description: as §4

[7] = biological target: T1, human transglutaminase type 2 (TG2); assay: cell-based or functional assay; remark: listed apart in the source
[8] = biological target: T2, cynomolgus monkey TG2; assay: ELISA on immobilised cynomolgus monkey TG2; r2 0.9361; EC50 95% confidence range 0.04198 to 0.1296 [panel A]
Description: as §4

[9] = biological target: T1, human transglutaminase type 2 (TG2); assay: cell-based or functional assay; remark: listed apart in the source
[10] = biological target: T1, human transglutaminase type 2 (TG2); assay: ELISA on immobilised human TG2; r2 0.9771; EC50 95% confidence range 0.04636 to 0.08491 [panel A]
Description: as §4

[11] = biological target: T2, cynomolgus monkey TG2; assay: ELISA on immobilised cynomolgus monkey TG2; r2 0.9329; EC50 95% confidence range 0.03522 to 0.08934 [panel A]
Description: as §4

[12] = biological target: T1, human transglutaminase type 2 (TG2); assay: ELISA on immobilised human TG2; r2 0.9792; EC50 95% confidence range ND [panel A]
Description: as §4

| Binder | IC50 of enzymatic inhibition, dansylated lysine incorporation into N,N-dimethylated casein [continued), panel D] [1] | IC50 of enzymatic inhibition, dansylated lysine incorporation into N,N-dimethylated casein [panel B] [2] | Kd [3] | koff [3] | kon [3] | Kd [4] | koff [4] | kon [4] | EC50 [5] | EC50 [6] | IC50, extracellular TG activity of HK-2 cells, biotin cadaverine incorporation into fibronectin [7] | EC50 [8] | IC50 of enzymatic inhibition, dansylated lysine incorporation into N,N-dimethylated casein [panel B] [9] | EC50 [10] | IC50 of enzymatic inhibition, dansylated lysine incorporation into N,N-dimethylated casein [panel A] [2] | EC50 [11] | EC50 [12] | IC50 of enzymatic inhibition, dansylated lysine incorporation into N,N-dimethylated casein [panel A] [9] |
| --- | --- | --- | --- | --- | --- | --- | --- | --- | --- | --- | --- | --- | --- | --- | --- | --- | --- | --- |
| B1 | 3.85 nM | 7.85 nM | 0.12 nM | 2.4e-05 s⁻¹ | 200000 M⁻¹ s⁻¹ | 0.11 nM | 1.8e-05 s⁻¹ | 160000 M⁻¹ s⁻¹ | 0.0612 nM | 0.02 nM |  |  |  |  |  |  |  |  |
| B2 |  |  | < 0.04 nM | < 1e-05 s⁻¹ | 240000 M⁻¹ s⁻¹ | 0.14 nM | 3.7e-05 s⁻¹ | 270000 M⁻¹ s⁻¹ |  |  | 4.9 nM | 0.0738 nM | 0.985 nM | 0.0627 nM |  |  |  |  |
| B3 |  |  |  |  | 270000 M⁻¹ s⁻¹ | < 0.03 nM | < 1e-05 s⁻¹ | 300000 M⁻¹ s⁻¹ |  |  | 19.8 nM |  |  |  | 8.51 nM | 0.0561 nM | ~0.0474 nM | 5.99 nM |
